Reference: patent US20260258394A1, “PLANT ENZYMES WITH IMPROVED ACTIVITY” (MAX-PLANCK-GESELLSCHAFT ZUR FÖRDERUNG DER WISSENSCHAFTEN …, priority 2023, published 2026)
Residue numbers refer to the chain shown, from its start.

Experiments:
Test in all cases: mass photometry of purified protein
[1] = molecular target: T1, GCC M5 (M. extorquens) β-subunit L100S, Y143H, D407I, I450V, W502R mutations (Methylorubrum extorquens)
T1 construct: Engineered β-subunit (carboxyltransferase), forms the β6 core; also called S100S; β6 core of GCC M5
T1 chain: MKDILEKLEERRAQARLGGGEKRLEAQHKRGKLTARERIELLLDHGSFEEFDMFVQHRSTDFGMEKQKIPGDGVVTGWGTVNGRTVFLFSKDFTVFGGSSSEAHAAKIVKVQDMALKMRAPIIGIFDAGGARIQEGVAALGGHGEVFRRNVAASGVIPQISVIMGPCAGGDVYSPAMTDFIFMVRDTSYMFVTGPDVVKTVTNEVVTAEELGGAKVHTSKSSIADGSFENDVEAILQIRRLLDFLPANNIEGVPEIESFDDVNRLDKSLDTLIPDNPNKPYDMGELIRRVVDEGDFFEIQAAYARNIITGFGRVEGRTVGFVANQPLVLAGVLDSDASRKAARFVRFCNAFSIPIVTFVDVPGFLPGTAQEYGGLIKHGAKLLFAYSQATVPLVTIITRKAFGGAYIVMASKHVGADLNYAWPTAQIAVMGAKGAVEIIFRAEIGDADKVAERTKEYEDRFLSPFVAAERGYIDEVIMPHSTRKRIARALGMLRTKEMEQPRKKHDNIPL
Procedure: (§1) Mass photometry (MP) measurements were carried out on microscope coverslips (1.5 H, 24×50 mm, Carl Roth) with CultureWell™ Reusable Gaskets (CW-50R-1.0, 50-3 mm diameter×1 mm depth) that had been washed by three consecutive rinses of water and isopropanol, prior to drying under a stream of pressurized air. Gaskets were assembled on microscope coverslips and placed on the stage of a TwoMP mass photometer (MP, Refeyn Ltd, Oxford, UK) with immersion oil. Measurements were carried out in 1× phosphate-buffered saline (PBS, 10 mM Na₂HPO₄, 1.8 mM KH₂PO₄, 137 mM NaCl, 2.7 mM KCl (pH 7.4)). To this end, 18 μL 1×PBS was used to focus the MP before 2 μL sample (1 μM protein) was added, rapidly mixed, and measured. Shortly before measuring, samples were prepared by diluting purified protein to 1 μM monomer concentration in buffer (50 mM HEPES, pH 7.8, 150 mM KCl), as determined by absorption at 280 nm. Data was acquired for 60 s at 100 frames per second using AcquireMP (Refeyn Ltd, Oxford, UK). MP contrast was calibrated to molecular masses using 50 nM of in-house purified protein mixture containing citrate-synthase complexes of known molecular masses ranging from 86 to 430 kDa. MP datasets were processed and analyzed using DiscoverMP (Refeyn Ltd, Oxford, UK). Details of MP image analysis have been described previously (Sonn-Segev, et al., 2020, Nat Commun 11, 1772).

[2] = molecular target: T2, GCC M5_L100N (M. extorquens) β-subunit L100N, Y143H, D407I, I450V, W502R mutations (Methylorubrum extorquens)
T2 construct: Engineered β-subunit, forms the β6 core; Cryo-EM structure PDB 8PN8; also called S100N; GCC M5 S100N
T2 chain: T1 chain with S100N
Procedure: as §1

[3] = molecular target: T3, PCC WT (M. extorquens) β-subunit (Methylorubrum extorquens)
T3 construct: Wild-type β-subunit of propionyl-CoA carboxylase, forms the β6 core; also called PCC wildtype; PCC from M. extorquens
T3 chain: T1 chain with S100L, H143Y, I407D, V450I, R502W
Procedure: as §1

binding result [1]: binds
binding result [2]: binds
binding result [3]: binds
B1: PCC WT (M. extorquens) α-subunit (enzyme)
chain: MFDKILIANRGEIACRIIKTAQKMGIKTVAVYSDADRDAVHVAMADEAVHIGPAPAAQSYLLIEKIIDACKQTGAQAVHPGYGFLSERESFPKALAEAGIVFIGPNPGAIAAMGDKIESKKAAAAAEVSTVPGFLGVIESPEHAVTIADEIGYPVMIKASAGGGGKGMRIAESADEVAEGFARAKSEASSSFGDDRVFVEKFITDPRHIEIQVIGDKHGNVIYLGERECSIQRRNQKVIEEAPSPLLDEETRRKMGEQAVALAKAVNYDSAGTVEFVAGQDKSFYFLEMNTRLQVEHPVTEMITGLDLVELMIRVAAGEKLPLSQDQVKLDGWAVESRVYAEDPTRNFLPSIGRLTTYQPPEEGPLGGAIVRNDTGVEEGGEIAIHYDPMIAKLVTWAPTRLEAIEAQATALDAFAIEGIRHNIPFLATLMAHPRWRDGRLSTGFIKEEFPEGFIAPEPEGPVAHRLAAVAAAIDHKLNIRKRGISGQMRDPSLLTFQRERVVVLSGQRFNVTVDPDGDDLLVTFDDGTTAPVRSAWRPGAPVWSGTVGDQSVAIQVRPLLNGVFLQHAGAAAEARVFTRREAELADLMPVKENAGSGKQLLCPMPGLVKQIMVSEGQEVKNGEPLAIVEAMKMENVLRAERDGTISKIAAKEGDSLAVDAVILEFA
modifications: biotin covalently bound to a lysine (position not given)
notes: Co-expressed with the β-subunit and BirA in E. coli BL21-birA and purified by His-Trap; also called α-subunit of the PCC; GCC M5 α-subunit
